In publication doi:10.1101/089938:

Biological target: Alanine racemase (Alr) from Streptomyces coelicolor A3(2), His6-tagged (Streptomyces coelicolor A3(2)) (UniProt O86786)
Assay: SEC

“Alanine racemase (Alr) from Streptomyces coelicolor A3(2), His6-tagged (from UniProt O86786 1-391) (enzyme)” gave a stoichiometry N of 2.
